B1: Hairpin Ribozyme (parent)
chain: GUCCUCUUUCACGUGCGCGUGAAAGAGAGAAGUGAACCAGAGAAACACACGUUGUGGUAUAUUACCUGGUA

Variants of: B1
Test: self-cleavage, relative activity (ratio to wild type); higher = more cleavage; co-transcriptional

Variant	self-cleavage
GUCCUCUUUCACGUGCGCGUGAAAGAGAGAAGUGAACCAGAGAAACACGCGUUGUGGUAAAUUACCUGGUA [A49G U60A]	0.475
GUCCUCUUUCACGUGCGCGUGAAAGAGAGAAGUGAACCAGAGAAACACGCGUUGUGGUACAUUACCUGGUA [A49G U60C]	0.722
GUCCUCUUUCACGUGCGCGUGAAAGAGAGAAGUGAACCAGAGAAACACAGGUUGUGGUAUAUUACCUAGUA [C50G G68A]	0.132
GUCCUCUUUCACGUGCGCGUGAAAGAGAGAAGUGAACCAGAGAAACACAAGUUGUGGUAUAUUACCUGGUC [C50A A71C]	0.816
GUCCUCUUUCACGUGCGCGUGAAAGAGAGAAGUGAACCAGAGAAACACAAGUUGUGGUAUAUUACCUGGUU [C50A A71U]	0.227
GUCCUCUUUCACGUGCGCGUGAAAGAGAGAAGUGAACCAGAGAAACACAAGUUGUGUUAUAUUACCUGGUA [C50A G57U]	0.128
GUCCUCUUUCACGUGCGCGUGAAAGAGAGAAGUGAACCAGAGAAACACAAGUUGUGGGAUAUUACCUGGUA [C50A U58G]	0.242
GUCCUCUUUCACGUGCGCGUGAAAGAGAGAAGUGAACCAGAGAAACACUGGUUGUGGUAUAUUACCUGGUA [A49U C50G]	0.193
GUCCUCUUUCACGUGCGCGUGAAAGAGAGAAGUGAACCAGAGAAACACUAGUUGUGGUAUAUUACCUGGUA [A49U C50A]	0.293
GUCCUCUUUCACGUGCGCGUGAAAGAGAGAAGUGAACCAGAGAAACACUCGUUGUGGUAUAUUGCCUGGUA [A49U A64G]	0.145
GUCCUCUUUCACGUGCGCGUGAAAGAGAGAAGUGAACCAGAGAAACACUCGUUGUGGUAUAUUCCCUGGUA [A49U A64C]	0.163
GUCCUCUUUCACGUGCGCGUGAAAGAGAGAAGUGAACCAGAGAAACACAGGUUCUGGUAUAUUACCUGGUA [C50G G54C]	0.634
GUCCUCUUUCACGUGCGCGUGAAAGAGAGAAGUGAACCAGAGAAACACAGGUUGUGGUAUAUUACGUGGUA [C50G C66G]	0.0636
GUCCUCUUUCACGUGCGCGUGAAAGAGAGAAGUGAACCAGAGAAACACGCGUUGUGGUAUAGUACCUGGUA [A49G U62G]	0.0712
GUCCUCUUUCACGUGCGCGUGAAAGAGAGAAGUGAACCAGAGAAACACGCGUUGUGGUAUAAUACCUGGUA [A49G U62A]	0.0894
GUCCUCUUUCACGUGCGCGUGAAAGAGAGAAGUGAACCAGAGAAACACAGGUUGUGGUAUAUUAACUGGUA [C50G C65A]	0.463
GUCCUCUUUCACGUGCGCGUGAAAGAGAGAAGUGAACCAGAGAAACACGCGUUGAGGUAUAUUACCUGGUA [A49G U55A]	0.431
GUCCUCUUUCACGUGCGCGUGAAAGAGAGAAGUGAACCAGAGAAACACUCGUUUUGGUAUAUUACCUGGUA [A49U G54U]	0.36
GUCCUCUUUCACGUGCGCGUGAAAGAGAGAAGUGAACCAGAGAAACACUCGUUGUGGUGUAUUACCUGGUA [A49U A59G]	0.091
GUCCUCUUUCACGUGCGCGUGAAAGAGAGAAGUGAACCAGAGAAACACUCGUUGUGGUAUAUUACCGGGUA [A49U U67G]	0.109
GUCCUCUUUCACGUGCGCGUGAAAGAGAGAAGUGAACCAGAGAAACACUCGUUGUGGUAUAAUACCUGGUA [A49U U62A]	0.186
GUCCUCUUUCACGUGCGCGUGAAAGAGAGAAGUGAACCAGAGAAACACAGGUUGUGGUAUAUUACCUGUUA [C50G G69U]	0.156
GUCCUCUUUCACGUGCGCGUGAAAGAGAGAAGUGAACCAGAGAAACACAAGGUGUGGUAUAUUACCUGGUA [C50A U52G]	0.361
GUCCUCUUUCACGUGCGCGUGAAAGAGAGAAGUGAACCAGAGAAACACAAGCUGUGGUAUAUUACCUGGUA [C50A U52C]	0.31
GUCCUCUUUCACGUGCGCGUGAAAGAGAGAAGUGAACCAGAGAAACACAAGAUGUGGUAUAUUACCUGGUA [C50A U52A]	0.293
GUCCUCUUUCACGUGCGCGUGAAAGAGAGAAGUGAACCAGAGAAACACAAGUUGUGGUAUGUUACCUGGUA [C50A A61G]	0.12

Variant	self-cleavage
GUCCUCUUUCACGUGCGCGUGAAAGAGAGAAGUGAACCAGAGAAACACAGGUUGUGGUAUAUUACCAGGUA [C50G U67A]	0.274
GUCCUCUUUCACGUGCGCGUGAAAGAGAGAAGUGAACCAGAGAAACACAGGUUGUGGUAUAUUACCGGGUA [C50G U67G]	0.101
GUCCUCUUUCACGUGCGCGUGAAAGAGAGAAGUGAACCAGAGAAACACAAGUUGUGGUAGAUUACCUGGUA [C50A U60G]	0.248
GUCCUCUUUCACGUGCGCGUGAAAGAGAGAAGUGAACCAGAGAAACACAGGUUGUGGCAUAUUACCUGGUA [C50G U58C]	0.297
GUCCUCUUUCACGUGCGCGUGAAAGAGAGAAGUGAACCAGAGAAACACAGGUUGUGGAAUAUUACCUGGUA [C50G U58A]	0.0745
GUCCUCUUUCACGUGCGCGUGAAAGAGAGAAGUGAACCAGAGAAACACAAGUUGAGGUAUAUUACCUGGUA [C50A U55A]	0.6
GUCCUCUUUCACGUGCGCGUGAAAGAGAGAAGUGAACCAGAGAAACACAAGUUGGGGUAUAUUACCUGGUA [C50A U55G]	0.419
GUCCUCUUUCACGUGCGCGUGAAAGAGAGAAGUGAACCAGAGAAACACUCGUUGUGGUAUAUUACCUGAUA [A49U G69A]	0.136
GUCCUCUUUCACGUGCGCGUGAAAGAGAGAAGUGAACCAGAGAAACACAAAUUGUGGUAUAUUACCUGGUA [C50A G51A]	0.288
GUCCUCUUUCACGUGCGCGUGAAAGAGAGAAGUGAACCAGAGAAACACAACUUGUGGUAUAUUACCUGGUA [C50A G51C]	0.36
GUCCUCUUUCACGUGCGCGUGAAAGAGAGAAGUGAACCAGAGAAACACAAGUUGUGGUAUAUUACCAGGUA [C50A U67A]	0.153
GUCCUCUUUCACGUGCGCGUGAAAGAGAGAAGUGAACCAGAGAAACACAGGUUGUGGUAUAUUUCCUGGUA [C50G A64U]	0.19
GUCCUCUUUCACGUGCGCGUGAAAGAGAGAAGUGAACCAGAGAAACACAAGUUGUGGUAUAUUAUCUGGUA [C50A C65U]	0.179
GUCCUCUUUCACGUGCGCGUGAAAGAGAGAAGUGAACCAGAGAAACACAAGUUGUGGUAUAUUACCUGAUA [C50A G69A]	0.152
GUCCUCUUUCACGUGCGCGUGAAAGAGAGAAGUGAACCAGAGAAACACAAGUUGUAGUAUAUUACCUGGUA [C50A G56A]	0.21
GUCCUCUUUCACGUGCGCGUGAAAGAGAGAAGUGAACCAGAGAAACACAGGUUGUGGUACAUUACCUGGUA [C50G U60C]	0.353
GUCCUCUUUCACGUGCGCGUGAAAGAGAGAAGUGAACCAGAGAAACACGCGUUGUGGUAUAUUACCUAGUA [A49G G68A]	0.147
GUCCUCUUUCACGUGCGCGUGAAAGAGAGAAGUGAACCAGAGAAACACGCGGUGUGGUAUAUUACCUGGUA [A49G U52G]	0.371
GUCCUCUUUCACGUGCGCGUGAAAGAGAGAAGUGAACCAGAGAAACACGCGCUGUGGUAUAUUACCUGGUA [A49G U52C]	0.502
GUCCUCUUUCACGUGCGCGUGAAAGAGAGAAGUGAACCAGAGAAACACGCGAUGUGGUAUAUUACCUGGUA [A49G U52A]	0.614
GUCCUCUUUCACGUGCGCGUGAAAGAGAGAAGUGAACCAGAGAAACACGCGUUGUUGUAUAUUACCUGGUA [A49G G56U]	0.261
GUCCUCUUUCACGUGCGCGUGAAAGAGAGAAGUGAACCAGAGAAACACUCGUUGUGGUAGAUUACCUGGUA [A49U U60G]	0.0756
GUCCUCUUUCACGUGCGCGUGAAAGAGAGAAGUGAACCAGAGAAACACAGGUUGUGGUAUAUUACCUGGUG [C50G A71G]	0.202
GUCCUCUUUCACGUGCGCGUGAAAGAGAGAAGUGAACCAGAGAAACACAGGUUGUGGUAUAUUACCUGGUU [C50G A71U]	0.148
GUCCUCUUUCACGUGCGCGUGAAAGAGAGAAGUGAACCAGAGAAACACGCGUAGUGGUAUAUUACCUGGUA [A49G U53A]	0.4
GUCCUCUUUCACGUGCGCGUGAAAGAGAGAAGUGAACCAGAGAAACACUCGUUGUGGUAUAUUAACUGGUA [A49U C65A]	0.188

Variant	self-cleavage
GUCCUCUUUCACGUGCGCGUGAAAGAGAGAAGUGAACCAGAGAAACACUCGUUGUGGUAUUUUACCUGGUA [A49U A61U]	0.108
GUCCUCUUUCACGUGCGCGUGAAAGAGAGAAGUGAACCAGAGAAACACUCGUUGUGGUAUGUUACCUGGUA [A49U A61G]	0.13
GUCCUCUUUCACGUGCGCGUGAAAGAGAGAAGUGAACCAGAGAAACACGCGUUGUGGUAUAUUACCUGAUA [A49G G69A]	0.172
GUCCUCUUUCACGUGCGCGUGAAAGAGAGAAGUGAACCAGAGAAACACGCGUUGUGGUAUAUUACCUGCUA [A49G G69C]	0.186
GUCCUCUUUCACGUGCGCGUGAAAGAGAGAAGUGAACCAGAGAAACACGCGUUGUGGUAUAUUACGUGGUA [A49G C66G]	0.192
GUCCUCUUUCACGUGCGCGUGAAAGAGAGAAGUGAACCAGAGAAACACAAGUUGUGGUAUAUUACCUGGCA [C50A U70C]	0.244
GUCCUCUUUCACGUGCGCGUGAAAGAGAGAAGUGAACCAGAGAAACACAAGUGGUGGUAUAUUACCUGGUA [C50A U53G]	0.395
GUCCUCUUUCACGUGCGCGUGAAAGAGAGAAGUGAACCAGAGAAACACUCGUUGUGGUAUAUUACAUGGUA [A49U C66A]	0.181
GUCCUCUUUCACGUGCGCGUGAAAGAGAGAAGUGAACCAGAGAAACACUCGUUGUGGUAUAUUACGUGGUA [A49U C66G]	0.136
GUCCUCUUUCACGUGCGCGUGAAAGAGAGAAGUGAACCAGAGAAACACUCGUUGUGGUAUAUUACUUGGUA [A49U C66U]	0.102
GUCCUCUUUCACGUGCGCGUGAAAGAGAGAAGUGAACCAGAGAAACACUCAUUGUGGUAUAUUACCUGGUA [A49U G51A]	0.209
GUCCUCUUUCACGUGCGCGUGAAAGAGAGAAGUGAACCAGAGAAACACUCCUUGUGGUAUAUUACCUGGUA [A49U G51C]	0.166
GUCCUCUUUCACGUGCGCGUGAAAGAGAGAAGUGAACCAGAGAAACACUCGUUGAGGUAUAUUACCUGGUA [A49U U55A]	1.03
GUCCUCUUUCACGUGCGCGUGAAAGAGAGAAGUGAACCAGAGAAACACAAGUUGUGGUAUAUUACAUGGUA [C50A C66A]	0.145
GUCCUCUUUCACGUGCGCGUGAAAGAGAGAAGUGAACCAGAGAAACACGCGUUGUGGUAUAUUACCCGGUA [A49G U67C]	0.125
GUCCUCUUUCACGUGCGCGUGAAAGAGAGAAGUGAACCAGAGAAACACGCGUUGUGGUAUAUUACCGGGUA [A49G U67G]	0.195
GUCCUCUUUCACGUGCGCGUGAAAGAGAGAAGUGAACCAGAGAAACACAGGUGGUGGUAUAUUACCUGGUA [C50G U53G]	0.0749
GUCCUCUUUCACGUGCGCGUGAAAGAGAGAAGUGAACCAGAGAAACACAGGUAGUGGUAUAUUACCUGGUA [C50G U53A]	0.251
GUCCUCUUUCACGUGCGCGUGAAAGAGAGAAGUGAACCAGAGAAACACAGGCUGUGGUAUAUUACCUGGUA [C50G U52C]	0.155
GUCCUCUUUCACGUGCGCGUGAAAGAGAGAAGUGAACCAGAGAAACACUCGUUGUGGUAUAUUACCUGGAA [A49U U70A]	0.237
GUCCUCUUUCACGUGCGCGUGAAAGAGAGAAGUGAACCAGAGAAACACAAGUUGUGGUAUAUAACCUGGUA [C50A U63A]	0.0698
GUCCUCUUUCACGUGCGCGUGAAAGAGAGAAGUGAACCAGAGAAACACAAGUUGUGGUAUAUGACCUGGUA [C50A U63G]	0.2
GUCCUCUUUCACGUGCGCGUGAAAGAGAGAAGUGAACCAGAGAAACACUCGUUGUAGUAUAUUACCUGGUA [A49U G56A]	0.136
GUCCUCUUUCACGUGCGCGUGAAAGAGAGAAGUGAACCAGAGAAACACUCGUUGUGGUAUAUUACCUGGUC [A49U A71C]	0.607

Reference: the RNAGym collection of RNA variant scans (doi:10.7554/elife.80360)
